Measurements reported in paper PMC5431095.

What was measured:
[1] = fluorescence microscopy, NuMA volume at spindle poles; details: control: DMSO
[2] = confocal microscopy of metaphase cells; details: glycan lost; control: wt NuMA-GFP in NuMA-depleted HeLa
[3] = Galectin-3 over NuMA fluorescence intensity; details: glycan lost; control: wt NuMA-GFP in NuMA-depleted HeLa

Q: Which localisation_or_trafficking ([1]; glycan lost) does the source give for “NuMA (Nuclear Mitotic Apparatus protein): GalNAcα-O-benzyl” here?
A: no change

Q: Which localisation_or_trafficking [2] does the source give for “NuMA (Nuclear Mitotic Apparatus protein): S1844A” here?
A: changes

Q: What about the “other: Galectin-3 recruitment to spindle poles” value [3] of the same substance?
A: decreases

Q: With “NuMA (Nuclear Mitotic Apparatus protein): swainsonine” as the substance, how does the localisation_or_trafficking ([1]; glycan changed form) read?
A: no change

Q: Which localisation_or_trafficking ([1]; glycan lost) does the source give for “NuMA (Nuclear Mitotic Apparatus protein): Ac-5SGlcNAc” here?
A: changes
